Experimental data reported in patent US20230235013A1 (MABSOLVE, published 2023).

T1: mouse FcγRI (Sino Biological Cat. No. 50086-M08H) (mouse, UniProt P26151 25-297)
T1 construct: bought
T1 sequence (looked up): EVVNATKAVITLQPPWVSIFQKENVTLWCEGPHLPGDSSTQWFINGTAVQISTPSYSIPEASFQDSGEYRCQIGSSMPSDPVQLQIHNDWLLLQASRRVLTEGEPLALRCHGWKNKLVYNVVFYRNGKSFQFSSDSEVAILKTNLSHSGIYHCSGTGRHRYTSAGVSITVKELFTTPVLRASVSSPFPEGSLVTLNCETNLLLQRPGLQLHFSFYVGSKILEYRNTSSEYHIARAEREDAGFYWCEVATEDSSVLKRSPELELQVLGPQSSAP

T2: human FcγRIIB (Sino Biological Cat. No. 10259-H08H) (human, UniProt P31994 43-217)
T2 construct: bought
T2 sequence (looked up): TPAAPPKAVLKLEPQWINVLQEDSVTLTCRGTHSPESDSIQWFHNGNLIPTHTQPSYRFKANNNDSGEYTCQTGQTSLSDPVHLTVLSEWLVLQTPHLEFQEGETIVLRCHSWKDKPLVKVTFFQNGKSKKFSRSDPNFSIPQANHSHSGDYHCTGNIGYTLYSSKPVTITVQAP

T3: human FcγRIIA (R131, Sino Biological Cat. No. 10374-H08H) (human, UniProt P12318 34-218)
T3 construct: bought; also called human FcγRIIa R131 allele; FcγRII allele R131
T3 sequence (looked up): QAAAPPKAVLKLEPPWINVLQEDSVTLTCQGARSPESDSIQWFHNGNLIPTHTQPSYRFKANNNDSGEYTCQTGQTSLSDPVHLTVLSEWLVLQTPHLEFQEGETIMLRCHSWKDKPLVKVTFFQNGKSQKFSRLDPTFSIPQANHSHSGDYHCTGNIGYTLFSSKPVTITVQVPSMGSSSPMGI


Tests used:
[1] = target: T4, Sheep Fc-CD52 fusion protein (Absolute Antibody Cat. No. PR00205) (human, UniProt P31358 25-36); experiment: ELISA, antigen coated, antibody 5 µg/mL
T4 construct: bought; also called CD52 antigen; human CD52; not shown: sheep Fc

[2] = target: T1, mouse FcγRI (Sino Biological Cat. No. …); experiment: SPR, captured His-receptor
[3] = target: human FcγRIIIa V158 allele (human, UniProt P08637 17-208, limits assumed); experiment: SPR, captured His-receptor
[4] = target: T2, human FcγRIIB (Sino Biological Cat. No. …); experiment: SPR, captured His-receptor
[5] = target: T5, Histidine-tagged recombinant human FcγRI (CD64) (human, UniProt P12314 16-288); experiment: SPR, captured His-receptor
T5 construct: bought; also called Sino Biological Cat. No. 12056-H08H

[6] = target: T6, human FcγRIIIB (NA2 allotype, Sino Biological Cat. No. 11046-H08H) (human, UniProt O75015 17-200); experiment: SPR, captured His-receptor
T6 construct: bought; also called human FcγRIIIb NA2 allele

[7] = target: T7, human FcγRIIIA (F158, Sino Biological Cat. No. 10389-H08H) (human, UniProt P08637 17-208); experiment: SPR, captured His-receptor
T7 construct: bought; also called human FcγRIIIa F158 allele

[8] = target: T3, human FcγRIIA (R131, Sino Biological …); experiment: SPR, captured His-receptor
[9] = target: T8, CD3D/CD3E heterodimer (Sino Biologicals Cat. No. CT038-H2508H) (human, UniProt P04234 22-105; P07766 23-126); experiment: ELISA, antigen coated, antibody 5 µg/mL
T8 construct: bought; also called CD3 antigen; human CD3

T7 sequence (P08637 17-208 limits assumed): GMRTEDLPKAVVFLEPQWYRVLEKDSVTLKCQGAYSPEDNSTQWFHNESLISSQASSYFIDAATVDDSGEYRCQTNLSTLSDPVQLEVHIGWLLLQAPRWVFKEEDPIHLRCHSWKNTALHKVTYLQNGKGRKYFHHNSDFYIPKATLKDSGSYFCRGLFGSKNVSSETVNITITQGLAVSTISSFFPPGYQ
Sequence of human FcγRIIIa V158 allele (P08637 17-208 F176V limits assumed): as the sequence (P08637 17-208 limits assumed) above, with F160V counted along it

Binder | Mean Absorbance [1] | binding result [2] | binding result [3] | binding result [4] | binding result [5] | binding result [6] | binding result [7] | binding result [8] | Mean Absorbance [9]
anti-CD52 human IgG1 L234S/L235T/G236R (antibody, also called 4-52; copies: 2 + 2) heavy: QVQLQESGPGLVRPSQTLSLTCTVSGFTFTDFYMNWVRQPPGRGLEWIGFIRDKAKGYTTEYNPSVKGRVTMLVDTSKNQFSLRLSSVTAADTAVYYCAREGHTAAPFDYWGQGSLVTVSSASTKGPSVFPLAPSSKSTSGGTAALGCLVKDYFPEPVTVSWNSGALTSGVHTFPAVLQSSGLYSLSSVVTVPSSSLGTQTYICNVNHKPSNTKVDKKVEPKSCDKTHTCPPCPAPESTRGPSVFLFPPKPKDTLMISRTPEVTCVVVDVSHEDPEVKFNWYVDGVEVHNAKTKPREEQYNSTYRVVSVLTVLHQDWLNGKEYKCKVSNKALPAPIEKTISKAKGQPREPQVYTLPPSRDELTKNQVSLTCLVKGFYPSDIAVEWESNGQPENNYKTTPPVLDSDGSFFLYSKLTVDKSRWQQGNVFSCSVMHEALHNHYTQKSLSLSPGK light: not shown | 1.44 absorbance | no binding (tested: 100 µg/mL) | no binding (tested: 100 µg/mL) | no binding (tested: 100 µg/mL) | no binding (tested: 100 µg/mL) | no binding (tested: 100 µg/mL) | no binding (tested: 100 µg/mL) | no binding (tested: 100 µg/mL) | 
anti-CD52 human IgG1 L234S/L235V/G236R (antibody, also called 4-53; copies: 2 + 2) heavy: QVQLQESGPGLVRPSQTLSLTCTVSGFTFTDFYMNWVRQPPGRGLEWIGFIRDKAKGYTTEYNPSVKGRVTMLVDTSKNQFSLRLSSVTAADTAVYYCAREGHTAAPFDYWGQGSLVTVSSASTKGPSVFPLAPSSKSTSGGTAALGCLVKDYFPEPVTVSWNSGALTSGVHTFPAVLQSSGLYSLSSVVTVPSSSLGTQTYICNVNHKPSNTKVDKKVEPKSCDKTHTCPPCPAPESVRGPSVFLFPPKPKDTLMISRTPEVTCVVVDVSHEDPEVKFNWYVDGVEVHNAKTKPREEQYNSTYRVVSVLTVLHQDWLNGKEYKCKVSNKALPAPIEKTISKAKGQPREPQVYTLPPSRDELTKNQVSLTCLVKGFYPSDIAVEWESNGQPENNYKTTPPVLDSDGSFFLYSKLTVDKSRWQQGNVFSCSVMHEALHNHYTQKSLSLSPGK light: not shown | 1.23 absorbance | no binding (tested: 100 µg/mL) | no binding (tested: 100 µg/mL) | no binding (tested: 100 µg/mL) | no binding (tested: 100 µg/mL) | no binding (tested: 100 µg/mL) | no binding (tested: 100 µg/mL) | no binding (tested: 100 µg/mL) | 
anti-CD52 human IgG1 L234G/L235S/G236R (antibody, also called 4-19; copies: 2 + 2) heavy: QVQLQESGPGLVRPSQTLSLTCTVSGFTFTDFYMNWVRQPPGRGLEWIGFIRDKAKGYTTEYNPSVKGRVTMLVDTSKNQFSLRLSSVTAADTAVYYCAREGHTAAPFDYWGQGSLVTVSSASTKGPSVFPLAPSSKSTSGGTAALGCLVKDYFPEPVTVSWNSGALTSGVHTFPAVLQSSGLYSLSSVVTVPSSSLGTQTYICNVNHKPSNTKVDKKVEPKSCDKTHTCPPCPAPEGSRGPSVFLFPPKPKDTLMISRTPEVTCVVVDVSHEDPEVKFNWYVDGVEVHNAKTKPREEQYNSTYRVVSVLTVLHQDWLNGKEYKCKVSNKALPAPIEKTISKAKGQPREPQVYTLPPSRDELTKNQVSLTCLVKGFYPSDIAVEWESNGQPENNYKTTPPVLDSDGSFFLYSKLTVDKSRWQQGNVFSCSVMHEALHNHYTQKSLSLSPGK light: not shown | 1.13 absorbance | no binding (tested: 100 µg/mL) | no binding (tested: 100 µg/mL) | no binding (tested: 100 µg/mL) | no binding (tested: 100 µg/mL) | no binding (tested: 100 µg/mL) | no binding (tested: 100 µg/mL) | no binding (tested: 100 µg/mL) | 
anti-CD3 (muromonab variable regions) human IgG1 wild type reference (antibody, also called 3-1; wild-type CD3 antibody) heavy: not shown light: QIVLTQSPAIMSASPGEKVTMTCSASSSVSYMNWYQQKSGTSPKRWIYDTSKLASGVPAHFRGSGSGTSYSLTISGMEAEDAATYYCQQWSSNPFTFGSGTKLEIKRTVAAPSVFIFPPSDEQLKSGTASVVCLLNNFYPREAKVQWKVDNALQSGNSQESVTEQDSKDSTYSLSSTLTLSKADYEKHKVYACEVTHQGLSSPVTKSFNRGEC | 0.006 absorbance |  |  |  |  |  |  |  | 1.01 absorbance
anti-CD3 human IgG1 L234T/L235Q/G236R (antibody, also called 3-60; copies: 2 + 2) heavy: not shown light: QIVLTQSPAIMSASPGEKVTMTCSASSSVSYMNWYQQKSGTSPKRWIYDTSKLASGVPAHFRGSGSGTSYSLTISGMEAEDAATYYCQQWSSNPFTFGSGTKLEIKRTVAAPSVFIFPPSDEQLKSGTASVVCLLNNFYPREAKVQWKVDNALQSGNSQESVTEQDSKDSTYSLSSTLTLSKADYEKHKVYACEVTHQGLSSPVTKSFNRGEC |  | no binding (tested: 100 µg/mL) |  | no binding (tested: 100 µg/mL) | no binding (tested: 100 µg/mL) | no binding (tested: 100 µg/mL) |  | no binding (tested: 100 µg/mL) | 1.33 absorbance
anti-CD3 human IgG1 L234T/L235T/G236R (antibody, also called 3-63; copies: 2 + 2) heavy: not shown light: QIVLTQSPAIMSASPGEKVTMTCSASSSVSYMNWYQQKSGTSPKRWIYDTSKLASGVPAHFRGSGSGTSYSLTISGMEAEDAATYYCQQWSSNPFTFGSGTKLEIKRTVAAPSVFIFPPSDEQLKSGTASVVCLLNNFYPREAKVQWKVDNALQSGNSQESVTEQDSKDSTYSLSSTLTLSKADYEKHKVYACEVTHQGLSSPVTKSFNRGEC |  | no binding (tested: 100 µg/mL) |  | no binding (tested: 100 µg/mL) | no binding (tested: 100 µg/mL) | no binding (tested: 100 µg/mL) |  | no binding (tested: 100 µg/mL) | 1.04 absorbance
anti-CD3 human IgG1 L234S/L235V/G236R (antibody, also called 3-53; copies: 2 + 2) heavy: not shown light: QIVLTQSPAIMSASPGEKVTMTCSASSSVSYMNWYQQKSGTSPKRWIYDTSKLASGVPAHFRGSGSGTSYSLTISGMEAEDAATYYCQQWSSNPFTFGSGTKLEIKRTVAAPSVFIFPPSDEQLKSGTASVVCLLNNFYPREAKVQWKVDNALQSGNSQESVTEQDSKDSTYSLSSTLTLSKADYEKHKVYACEVTHQGLSSPVTKSFNRGEC |  | no binding (tested: 100 µg/mL) |  | no binding (tested: 100 µg/mL) | no binding (tested: 100 µg/mL) | no binding (tested: 100 µg/mL) |  | no binding (tested: 100 µg/mL) | 1.25 absorbance
anti-CD3 human IgG1 L234G/L235S/G236R (antibody, also called 3-19; copies: 2 + 2) heavy: not shown light: QIVLTQSPAIMSASPGEKVTMTCSASSSVSYMNWYQQKSGTSPKRWIYDTSKLASGVPAHFRGSGSGTSYSLTISGMEAEDAATYYCQQWSSNPFTFGSGTKLEIKRTVAAPSVFIFPPSDEQLKSGTASVVCLLNNFYPREAKVQWKVDNALQSGNSQESVTEQDSKDSTYSLSSTLTLSKADYEKHKVYACEVTHQGLSSPVTKSFNRGEC |  | no binding (tested: 100 µg/mL) |  | no binding (tested: 100 µg/mL) | no binding (tested: 100 µg/mL) | no binding (tested: 100 µg/mL) |  | no binding (tested: 100 µg/mL) | 1.24 absorbance
